For assay [1], the target named is PelC (P. aeruginosa PAO1, PA3062), outer membrane lipoprotein (Pseudomonas aeruginosa PAO1). Nature of the assay: cryo-EM structure.
Assay [2] has the same target. Briefly: cryo-EM structure. This is another data set of the same source.

The stoichiometry N is the number of molecules, sites or subunits per partner or assembly.

Read-outs that look alike come from different tables or passages of the source.

For the substance “PelC (P. aeruginosa PAO1, PA3062), outer membrane lipoprotein (natural protein)”, the stoichiometry N in assay [1] and in assay [2] was 12 each time.

The record behind these values is paper doi:10.64898/2026.08.21.746223.
